The results in this text go back to paper PMC6202311.

The test system of series [1] is RNase E NTD WT (Escherichia coli). Briefly: BLI. Particulars: 3' U-biotin ligated, BLI: 25 mM HEPES pH 7.0, 150 mM NaCl, 100 mM KCl, 10 mM CaCl2, 0.5 mM TCEP, RNA immobilised on streptavidin sensors, protein 0-500 nM, temperature not stated.
For series [2], the system named is RNase E NTD 8x mutant (Escherichia coli). Briefly: BLI. As to conditions: 5' monophosphate; 3' U-biotin ligated; BLI: 25 mM HEPES pH 7.0, 150 mM NaCl, 100 mM KCl, 10 mM CaCl2, 0.5 mM TCEP; RNA immobilised on streptavidin sensors, protein 0-500 nM; temperature not stated.

Consider RprA 5'-triphosphate, for which the Kd (in general, the equilibrium constant for the complex coming apart) in series [1] (5' triphosphate) came out at 8.6 nM. With RprA 5'-monophosphate, the values for the Kd in series [1] (5' monophosphate) and in series [2] were 15.6 nM and 47 nM, respectively.
